Measured values published in US20110105394A1 (Novo Nordisk, published 2011).
*1 amine or outer side, *2 acyl side, *3 side chain or, on linkers, in order; H or OH if unused. Bridges are numbered along the chain shown (N, C = ends). The star is where a group is joined. C20 diacid = O=C(O)CCCCCCCCCCCCCCCCCCC(=O)*; γGlu = O=C(O)[C@H](CCC(=O)[*:2])N[*:1]

T1: Amylin 3(a) receptor (human calcitonin receptor (CTa) with RAMP-3) (human) (UniProt P30988)
T1 sequence (looked up) 1: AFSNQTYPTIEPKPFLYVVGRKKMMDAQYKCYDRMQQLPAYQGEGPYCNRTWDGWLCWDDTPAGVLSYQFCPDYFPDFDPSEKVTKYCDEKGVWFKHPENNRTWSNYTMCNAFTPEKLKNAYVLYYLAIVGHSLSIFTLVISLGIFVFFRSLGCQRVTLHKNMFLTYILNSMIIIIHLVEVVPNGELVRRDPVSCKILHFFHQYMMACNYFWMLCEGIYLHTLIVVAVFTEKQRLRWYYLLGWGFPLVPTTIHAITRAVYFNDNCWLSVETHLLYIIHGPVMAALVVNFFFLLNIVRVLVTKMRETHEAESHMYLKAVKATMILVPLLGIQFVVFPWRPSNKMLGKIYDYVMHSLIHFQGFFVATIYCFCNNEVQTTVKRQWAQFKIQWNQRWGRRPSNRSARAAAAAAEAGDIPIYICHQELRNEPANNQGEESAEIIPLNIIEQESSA
T1 sequence (looked up) 2: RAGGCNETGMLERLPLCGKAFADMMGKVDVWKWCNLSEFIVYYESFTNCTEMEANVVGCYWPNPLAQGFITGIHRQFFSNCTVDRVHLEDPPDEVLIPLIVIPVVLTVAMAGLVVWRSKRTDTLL

T2: Amylin 3(a) receptor (human calcitonin receptor (CTa) with RAMP-3) (human, UniProt P30988 25-474; O60896 24-148, limits assumed)
T2 sequence (looked up) 1: T1 sequence (looked up) 1
T2 sequence (looked up) 2: T1 sequence (looked up) 2

B1: N-alpha-(19-carboxynonadecanoyl)-Glu-Glu-Arg-[Glu1,Glu14,His17,Glu31]-pramlintide (peptide)
peptide: {C20 diacid}-EERECNTATCATQRLAEFLHHSSNNFGPILPPTEVGSNTY-NH2
modifications: disulfide 5-10
SMILES: CC[C@H](C)[C@H](NC(=O)[C@@H]1CCCN1C(=O)CNC(=O)[C@H](Cc1ccccc1)NC(=O)[C@H](CC(N)=O)NC(=O)[C@H](CC(N)=O)NC(=O)[C@H](CO)NC(=O)[C@H](CO)NC(=O)[C@H](Cc1c[nH]cn1)NC(=O)[C@H](Cc1c[nH]cn1)NC(=O)[C@H](CC(C)C)NC(=O)[C@H](Cc1ccccc1)NC(=O)[C@H](CCC(=O)O)NC(=O)[C@H](C)NC(=O)[C@H](CC(C)C)NC(=O)[C@H](CCCNC(=N)N)NC(=O)[C@H](CCC(N)=O)NC(=O)[C@@H](NC(=O)[C@H](C)NC(=O)[C@@H]1CSSC[C@H](NC(=O)[C@H](CCC(=O)O)NC(=O)[C@H](CCCNC(=N)N)NC(=O)[C@H](CCC(=O)O)NC(=O)[C@H](CCC(=O)O)NC(=O)CCCCCCCCCCCCCCCCCCC(=O)O)C(=O)N[C@@H](CC(N)=O)C(=O)N[C@@H]([C@@H](C)O)C(=O)N[C@@H](C)C(=O)N[C@@H]([C@@H](C)O)C(=O)N1)[C@@H](C)O)C(=O)N[C@@H](CC(C)C)C(=O)N1CCC[C@H]1C(=O)N1CCC[C@H]1C(=O)N[C@H](C(=O)N[C@@H](CCC(=O)O)C(=O)N[C@H](C(=O)NCC(=O)N[C@@H](CO)C(=O)N[C@@H](CC(N)=O)C(=O)N[C@H](C(=O)N[C@@H](Cc1ccc(O)cc1)C(N)=O)[C@@H](C)O)C(C)C)[C@@H](C)O
B2: N-alpha-[(S)-4-Carboxy-4-(19-carboxynonadecanoylamino)butyryl]-Glu-His-His-[His1,His17]-pramlintide (peptide)
peptide: {C20 diacid-γGlu}-EHHHCNTATCATQRLANFLHHSSNNFGPILPPTNVGSNTY-NH2
modifications: disulfide 5-10
SMILES: CC[C@H](C)[C@H](NC(=O)[C@@H]1CCCN1C(=O)CNC(=O)[C@H](Cc1ccccc1)NC(=O)[C@H](CC(N)=O)NC(=O)[C@H](CC(N)=O)NC(=O)[C@H](CO)NC(=O)[C@H](CO)NC(=O)[C@H](Cc1c[nH]cn1)NC(=O)[C@H](Cc1c[nH]cn1)NC(=O)[C@H](CC(C)C)NC(=O)[C@H](Cc1ccccc1)NC(=O)[C@H](CC(N)=O)NC(=O)[C@H](C)NC(=O)[C@H](CC(C)C)NC(=O)[C@H](CCCNC(=N)N)NC(=O)[C@H](CCC(N)=O)NC(=O)[C@@H](NC(=O)[C@H](C)NC(=O)[C@@H]1CSSC[C@H](NC(=O)[C@H](Cc2c[nH]cn2)NC(=O)[C@H](Cc2c[nH]cn2)NC(=O)[C@H](Cc2c[nH]cn2)NC(=O)[C@H](CCC(=O)O)NC(=O)CC[C@H](NC(=O)CCCCCCCCCCCCCCCCCCC(=O)O)C(=O)O)C(=O)N[C@@H](CC(N)=O)C(=O)N[C@@H]([C@@H](C)O)C(=O)N[C@@H](C)C(=O)N[C@@H]([C@@H](C)O)C(=O)N1)[C@@H](C)O)C(=O)N[C@@H](CC(C)C)C(=O)N1CCC[C@H]1C(=O)N1CCC[C@H]1C(=O)N[C@H](C(=O)N[C@@H](CC(N)=O)C(=O)N[C@H](C(=O)NCC(=O)N[C@@H](CO)C(=O)N[C@@H](CC(N)=O)C(=O)N[C@H](C(=O)N[C@@H](Cc1ccc(O)cc1)C(N)=O)[C@@H](C)O)C(C)C)[C@@H](C)O
B3: N-alpha-[(S)-4-Carboxy-4-(19-carboxynonadecanoylamino)butyryl]-Glu-His-Arg-[Arg1,His17]-pramlintide (peptide)
peptide: {C20 diacid-γGlu}-EHRRCNTATCATQRLANFLHHSSNNFGPILPPTNVGSNTY-NH2
modifications: disulfide 5-10
SMILES: CC[C@H](C)[C@H](NC(=O)[C@@H]1CCCN1C(=O)CNC(=O)[C@H](Cc1ccccc1)NC(=O)[C@H](CC(N)=O)NC(=O)[C@H](CC(N)=O)NC(=O)[C@H](CO)NC(=O)[C@H](CO)NC(=O)[C@H](Cc1c[nH]cn1)NC(=O)[C@H](Cc1c[nH]cn1)NC(=O)[C@H](CC(C)C)NC(=O)[C@H](Cc1ccccc1)NC(=O)[C@H](CC(N)=O)NC(=O)[C@H](C)NC(=O)[C@H](CC(C)C)NC(=O)[C@H](CCCNC(=N)N)NC(=O)[C@H](CCC(N)=O)NC(=O)[C@@H](NC(=O)[C@H](C)NC(=O)[C@@H]1CSSC[C@H](NC(=O)[C@H](CCCNC(=N)N)NC(=O)[C@H](CCCNC(=N)N)NC(=O)[C@H](Cc2c[nH]cn2)NC(=O)[C@H](CCC(=O)O)NC(=O)CC[C@H](NC(=O)CCCCCCCCCCCCCCCCCCC(=O)O)C(=O)O)C(=O)N[C@@H](CC(N)=O)C(=O)N[C@@H]([C@@H](C)O)C(=O)N[C@@H](C)C(=O)N[C@@H]([C@@H](C)O)C(=O)N1)[C@@H](C)O)C(=O)N[C@@H](CC(C)C)C(=O)N1CCC[C@H]1C(=O)N1CCC[C@H]1C(=O)N[C@H](C(=O)N[C@@H](CC(N)=O)C(=O)N[C@H](C(=O)NCC(=O)N[C@@H](CO)C(=O)N[C@@H](CC(N)=O)C(=O)N[C@H](C(=O)N[C@@H](Cc1ccc(O)cc1)C(N)=O)[C@@H](C)O)C(C)C)[C@@H](C)O
B4: N-alpha-[(S)-4-Carboxy-4-(19-carboxynonadecanoylamino)butyryl]-Glu-His-His-[Arg1,Arg17]-pramlintide (peptide)
peptide: {C20 diacid-γGlu}-EHHRCNTATCATQRLANFLRHSSNNFGPILPPTNVGSNTY-NH2
modifications: disulfide 5-10
SMILES: CC[C@H](C)[C@H](NC(=O)[C@@H]1CCCN1C(=O)CNC(=O)[C@H](Cc1ccccc1)NC(=O)[C@H](CC(N)=O)NC(=O)[C@H](CC(N)=O)NC(=O)[C@H](CO)NC(=O)[C@H](CO)NC(=O)[C@H](Cc1c[nH]cn1)NC(=O)[C@H](CCCNC(=N)N)NC(=O)[C@H](CC(C)C)NC(=O)[C@H](Cc1ccccc1)NC(=O)[C@H](CC(N)=O)NC(=O)[C@H](C)NC(=O)[C@H](CC(C)C)NC(=O)[C@H](CCCNC(=N)N)NC(=O)[C@H](CCC(N)=O)NC(=O)[C@@H](NC(=O)[C@H](C)NC(=O)[C@@H]1CSSC[C@H](NC(=O)[C@H](CCCNC(=N)N)NC(=O)[C@H](Cc2c[nH]cn2)NC(=O)[C@H](Cc2c[nH]cn2)NC(=O)[C@H](CCC(=O)O)NC(=O)CC[C@H](NC(=O)CCCCCCCCCCCCCCCCCCC(=O)O)C(=O)O)C(=O)N[C@@H](CC(N)=O)C(=O)N[C@@H]([C@@H](C)O)C(=O)N[C@@H](C)C(=O)N[C@@H]([C@@H](C)O)C(=O)N1)[C@@H](C)O)C(=O)N[C@@H](CC(C)C)C(=O)N1CCC[C@H]1C(=O)N1CCC[C@H]1C(=O)N[C@H](C(=O)N[C@@H](CC(N)=O)C(=O)N[C@H](C(=O)NCC(=O)N[C@@H](CO)C(=O)N[C@@H](CC(N)=O)C(=O)N[C@H](C(=O)N[C@@H](Cc1ccc(O)cc1)C(N)=O)[C@@H](C)O)C(C)C)[C@@H](C)O
B5: N-alpha-[(S)-4-Carboxy-4-(19-carboxynonadecanoylamino)butyryl]-GluHis-His-[Arg1,His17,Gln21]-pramlintide (peptide)
peptide: {C20 diacid-γGlu}-EHHRCNTATCATQRLANFLHHSSQNFGPILPPTNVGSNTY-NH2
modifications: disulfide 5-10
SMILES: CC[C@H](C)[C@H](NC(=O)[C@@H]1CCCN1C(=O)CNC(=O)[C@H](Cc1ccccc1)NC(=O)[C@H](CC(N)=O)NC(=O)[C@H](CCC(N)=O)NC(=O)[C@H](CO)NC(=O)[C@H](CO)NC(=O)[C@H](Cc1c[nH]cn1)NC(=O)[C@H](Cc1c[nH]cn1)NC(=O)[C@H](CC(C)C)NC(=O)[C@H](Cc1ccccc1)NC(=O)[C@H](CC(N)=O)NC(=O)[C@H](C)NC(=O)[C@H](CC(C)C)NC(=O)[C@H](CCCNC(=N)N)NC(=O)[C@H](CCC(N)=O)NC(=O)[C@@H](NC(=O)[C@H](C)NC(=O)[C@@H]1CSSC[C@H](NC(=O)[C@H](CCCNC(=N)N)NC(=O)[C@H](Cc2c[nH]cn2)NC(=O)[C@H](Cc2c[nH]cn2)NC(=O)[C@H](CCC(=O)O)NC(=O)CC[C@H](NC(=O)CCCCCCCCCCCCCCCCCCC(=O)O)C(=O)O)C(=O)N[C@@H](CC(N)=O)C(=O)N[C@@H]([C@@H](C)O)C(=O)N[C@@H](C)C(=O)N[C@@H]([C@@H](C)O)C(=O)N1)[C@@H](C)O)C(=O)N[C@@H](CC(C)C)C(=O)N1CCC[C@H]1C(=O)N1CCC[C@H]1C(=O)N[C@H](C(=O)N[C@@H](CC(N)=O)C(=O)N[C@H](C(=O)NCC(=O)N[C@@H](CO)C(=O)N[C@@H](CC(N)=O)C(=O)N[C@H](C(=O)N[C@@H](Cc1ccc(O)cc1)C(N)=O)[C@@H](C)O)C(C)C)[C@@H](C)O
B6: N-alpha-[19-carboxynonadecanoyl]-Glu-Lys-Arg-[His17]-pramlintide (peptide)
peptide: {C20 diacid}-EKRKCNTATCATQRLANFLHHSSNNFGPILPPTNVGSNTY-NH2
modifications: disulfide 5-10
SMILES: CC[C@H](C)[C@H](NC(=O)[C@@H]1CCCN1C(=O)CNC(=O)[C@H](Cc1ccccc1)NC(=O)[C@H](CC(N)=O)NC(=O)[C@H](CC(N)=O)NC(=O)[C@H](CO)NC(=O)[C@H](CO)NC(=O)[C@H](Cc1c[nH]cn1)NC(=O)[C@H](Cc1c[nH]cn1)NC(=O)[C@H](CC(C)C)NC(=O)[C@H](Cc1ccccc1)NC(=O)[C@H](CC(N)=O)NC(=O)[C@H](C)NC(=O)[C@H](CC(C)C)NC(=O)[C@H](CCCNC(=N)N)NC(=O)[C@H](CCC(N)=O)NC(=O)[C@@H](NC(=O)[C@H](C)NC(=O)[C@@H]1CSSC[C@H](NC(=O)[C@H](CCCCN)NC(=O)[C@H](CCCNC(=N)N)NC(=O)[C@H](CCCCN)NC(=O)[C@H](CCC(=O)O)NC(=O)CCCCCCCCCCCCCCCCCCC(=O)O)C(=O)N[C@@H](CC(N)=O)C(=O)N[C@@H]([C@@H](C)O)C(=O)N[C@@H](C)C(=O)N[C@@H]([C@@H](C)O)C(=O)N1)[C@@H](C)O)C(=O)N[C@@H](CC(C)C)C(=O)N1CCC[C@H]1C(=O)N1CCC[C@H]1C(=O)N[C@H](C(=O)N[C@@H](CC(N)=O)C(=O)N[C@H](C(=O)NCC(=O)N[C@@H](CO)C(=O)N[C@@H](CC(N)=O)C(=O)N[C@H](C(=O)N[C@@H](Cc1ccc(O)cc1)C(N)=O)[C@@H](C)O)C(C)C)[C@@H](C)O

The binders below were run against T1, Amylin 3(a) receptor (human calcitonin receptor (CTa) with RAMP-3) (human) (assay: cell-based or functional assay).

Point of comparison: B3, Potency Luciferase 0.2 nM. Against it:
- B1 — 4.5-fold higher, 0.9 nM
- B2 — 2-fold lower, 0.1 nM
- B4 — the same, 0.2 nM
- B5 — 2-fold lower, 0.1 nM

Each binder was assayed against T2, Amylin 3(a) receptor (human calcitonin …) (assay: cell-based or functional assay).

For B6, the “Potency Luciferase” value was 0.06 nM.
